Reference: patent US20240325555A1

Columns and labels:
mouse LIV-1 (mouse) = target: T1, mouse LIV-1 (mouse) (UniProt Q8C145); assay: FACS, HEK293/Mouse_LIV-1 cells
T1 sequence (looked up): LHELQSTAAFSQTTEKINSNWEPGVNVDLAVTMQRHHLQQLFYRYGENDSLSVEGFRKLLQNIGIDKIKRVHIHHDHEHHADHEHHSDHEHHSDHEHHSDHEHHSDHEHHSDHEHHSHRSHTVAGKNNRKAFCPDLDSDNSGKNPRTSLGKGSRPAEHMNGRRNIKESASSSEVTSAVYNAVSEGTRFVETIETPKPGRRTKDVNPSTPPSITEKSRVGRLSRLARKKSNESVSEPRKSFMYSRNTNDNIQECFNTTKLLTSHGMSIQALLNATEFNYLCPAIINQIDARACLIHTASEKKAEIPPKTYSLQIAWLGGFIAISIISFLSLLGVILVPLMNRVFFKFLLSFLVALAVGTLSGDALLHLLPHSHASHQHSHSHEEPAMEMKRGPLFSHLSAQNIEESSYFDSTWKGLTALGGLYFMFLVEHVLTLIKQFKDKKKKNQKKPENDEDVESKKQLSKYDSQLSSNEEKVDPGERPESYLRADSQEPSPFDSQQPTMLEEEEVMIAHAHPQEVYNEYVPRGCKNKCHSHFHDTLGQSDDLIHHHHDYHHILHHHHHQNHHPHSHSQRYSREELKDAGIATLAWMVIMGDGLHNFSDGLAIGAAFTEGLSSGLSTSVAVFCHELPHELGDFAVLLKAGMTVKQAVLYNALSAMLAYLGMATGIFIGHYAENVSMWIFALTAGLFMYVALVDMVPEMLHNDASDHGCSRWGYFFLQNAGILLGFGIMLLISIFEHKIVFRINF

rat LIV-1 (rat) = target: T2, rat LIV-1 (rat) (UniProt Q4V887); assay: FACS, HEK293/Rat_LIV-1 cells
T2 sequence (looked up): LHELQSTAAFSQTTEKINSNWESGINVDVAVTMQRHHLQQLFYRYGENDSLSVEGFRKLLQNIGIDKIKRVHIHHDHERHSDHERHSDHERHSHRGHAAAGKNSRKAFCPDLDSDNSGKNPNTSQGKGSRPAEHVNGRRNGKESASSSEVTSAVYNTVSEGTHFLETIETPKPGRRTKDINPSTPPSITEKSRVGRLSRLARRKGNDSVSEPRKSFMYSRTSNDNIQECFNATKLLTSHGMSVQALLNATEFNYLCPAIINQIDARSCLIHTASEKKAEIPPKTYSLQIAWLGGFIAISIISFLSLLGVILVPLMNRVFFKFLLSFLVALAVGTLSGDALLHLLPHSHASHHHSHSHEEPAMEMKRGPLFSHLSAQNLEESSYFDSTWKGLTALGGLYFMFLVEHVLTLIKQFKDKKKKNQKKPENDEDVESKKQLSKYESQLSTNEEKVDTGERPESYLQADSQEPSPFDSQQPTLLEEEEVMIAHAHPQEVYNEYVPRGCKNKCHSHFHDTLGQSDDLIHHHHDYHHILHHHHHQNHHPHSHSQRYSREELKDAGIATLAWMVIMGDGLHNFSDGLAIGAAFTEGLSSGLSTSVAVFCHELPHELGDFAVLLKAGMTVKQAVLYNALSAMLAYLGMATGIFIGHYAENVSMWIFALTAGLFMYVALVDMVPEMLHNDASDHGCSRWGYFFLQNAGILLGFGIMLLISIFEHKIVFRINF

- Top (MFI) (mouse LIV-1 (mouse)): 121 MFI
- Top (MFI) (rat LIV-1 (rat)): 150 MFI
B1: 5D6B10 (antibody, V domains shown)
VH: QVQLKQSGPGLVQPSQSLSITCTVSGFSLTTYGIHWVRQSPGKGLEWLGVIWTGGTTDYNAAFISRLSISKDNSKSQVFFKMNSLQANDTAIYYCARGPSSYWGQGTLVTVSA
VL: DIVMTQSQKFMSTSVGDRVSVTCKASQNVDTNVVWYQQKPGQSPKALIHSASYRYSGVPDRFTGSGSGTDFTLTISNVQSEDLAEYFCQQYNNYPWTFGGGTKLEIK
